From publication PMC2575619, “Novel splice variants derived from the receptor tyrosine kinase superfamily are potential therapeutics for rheumatoid arthritis” (Arthritis Research & Therapy, 2008)
Blank lines part the entries; values can stand above or below the molecule they belong to.

Assays:
[1] = target: angiopoietin-1 (UniProt Q15389); test: ELISA; Ang-1 coated on 96-well plates at 4 μg/ml in PBS; purified Tie1-751(6His) applied, 1.5 hours at room temperature, three rinses in PBS/0.05% Tween-20; detected with biotin-labeled extracellular domain-specific antibody
[2] = target: T1, recombinant human VEGFR3/Fc chimera (human, UniProt P35916 25-775); test: co-IP; competition in the solution binding of VEGF-D to VEGFR3-765-Myc: fivefold molar excess of recombinant human VEGFR3/Fc or VEGFR1/Fc chimera; immunoprecipitation with anti-VEGF-D, blot with anti-Myc; settings: both partners purified
T1 construct: Human VEGF receptor type 3, the soluble part fused to Fc; Commercial chimera, probably the extracellular domain on human IgG1 Fc; also called soluble VEGFR3/Fc chimera; source: bought: R&D Systems
T1 sequence (looked up): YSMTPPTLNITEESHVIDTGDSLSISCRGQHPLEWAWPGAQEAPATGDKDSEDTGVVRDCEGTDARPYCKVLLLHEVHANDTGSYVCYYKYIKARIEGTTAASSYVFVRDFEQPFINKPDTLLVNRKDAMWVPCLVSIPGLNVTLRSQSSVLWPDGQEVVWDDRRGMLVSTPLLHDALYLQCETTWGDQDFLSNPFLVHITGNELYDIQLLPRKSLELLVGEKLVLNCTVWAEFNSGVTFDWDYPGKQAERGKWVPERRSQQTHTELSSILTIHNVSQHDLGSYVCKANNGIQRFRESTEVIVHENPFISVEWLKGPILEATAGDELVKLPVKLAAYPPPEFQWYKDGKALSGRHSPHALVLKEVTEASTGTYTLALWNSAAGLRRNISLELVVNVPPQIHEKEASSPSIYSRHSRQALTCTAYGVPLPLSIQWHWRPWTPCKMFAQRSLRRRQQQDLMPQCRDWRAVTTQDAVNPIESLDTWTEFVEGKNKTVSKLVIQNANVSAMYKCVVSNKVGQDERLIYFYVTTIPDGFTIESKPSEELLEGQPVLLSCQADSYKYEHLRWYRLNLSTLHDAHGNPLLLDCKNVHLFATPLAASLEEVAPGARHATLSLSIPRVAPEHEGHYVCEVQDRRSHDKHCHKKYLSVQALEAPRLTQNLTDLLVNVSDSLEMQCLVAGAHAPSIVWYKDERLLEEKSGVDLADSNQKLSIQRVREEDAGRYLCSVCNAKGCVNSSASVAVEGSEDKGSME

Sequence of angiopoietin-1 (Q15389 16-498): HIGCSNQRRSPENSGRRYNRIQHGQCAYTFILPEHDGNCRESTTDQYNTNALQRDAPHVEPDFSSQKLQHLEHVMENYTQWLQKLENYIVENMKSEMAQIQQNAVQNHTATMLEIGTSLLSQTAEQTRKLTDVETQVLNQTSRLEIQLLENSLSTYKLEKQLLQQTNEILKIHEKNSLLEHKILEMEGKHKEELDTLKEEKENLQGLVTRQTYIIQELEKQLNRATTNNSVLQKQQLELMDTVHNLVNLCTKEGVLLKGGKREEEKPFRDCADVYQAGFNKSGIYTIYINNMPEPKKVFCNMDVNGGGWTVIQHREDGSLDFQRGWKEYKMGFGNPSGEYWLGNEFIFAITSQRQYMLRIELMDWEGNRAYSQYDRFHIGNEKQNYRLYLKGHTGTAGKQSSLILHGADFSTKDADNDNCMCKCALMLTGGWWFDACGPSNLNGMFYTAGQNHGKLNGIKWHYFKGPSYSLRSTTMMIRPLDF

Kd [1]: 89 nM
Molecule: Tie1-751(6His) (from UniProt P35590-1 22-740) (receptor)

binding result [2]: binds
B1: VEGF-D (ligand, human, UniProt O43915 89-205, looked up)
chain: FAATFYDIETLKVIDEEWQRTQCSPRETCVEVASELGKSTNTFFKPPCVNVFRCGGCCNEESLICMNTSTSYISKQLFEISVPLTSVPELVPVKVANHTGCKCLPTAPRHPYSIIRR
notes: Human VEGF-D, bought recombinant protein; source: bought: R&D Systems
